# According to patent US12723255B2, “Herbicide tolerance genes and methods of use thereof” (priority 2014, dated 2026):
# Positions count from the first letter of the chain named.
# B1: MON-HT55: engineered oxygenase protein, amino acid sequence SEQ ID NO:11 (protein)
# chain: MHAALSPLSQRFERIAVQPLTGVLGAEITGVDLREPLDDSTWNEILDAFHTYQVIYFPGQAITNEQHIAFSRRFGPVDPVPLLKSIEGYPEVQMIRREANESGRVIGENWHTDSTFLDAPPAAVVMYAKEIPPYGGDTLFTSMYTAWETLSPTMQATIEGLNVVHSATRVFGSLYQAQNRRFSNTSVKVMDVDAGDRETVHPLVVTHPETGRKGLYVNQVYCQRIEGMSEKESEPLLSFLFAHATKPEFTCRVRWQEGDVLVWDNLCTQHYAVPDYAGKFRYLTRTTVGGVRPAR
# B2: MON-HT7: engineered oxygenase protein, amino acid sequence SEQ ID NO:34 (protein)
# chain: MHAALTPLTNKYRFIDVQPLTGVLGAEITGVDLREPLDDSTWNEILDAFHTYQVIYFPGQAITNEQHIAFSRRFGPVDPVPLLKSIEGYPEVQMIRREANESGRVIGDDWHADSTFLDAPPAAVVMRAIEVPEYGGDTGFLSMYSAWETLSPTMQATIEGLNVVHSATKVFGSLYQATNWRFSNTSVKVMDVDAGDRETVHPLVVTHPVTGRRALYCNQVYCQKIQGMTDAESKSLLQFLYEHATKFDFTCRVRWKKDQVLVWDNLCTMHRSVPDYAGKFRYLTRTTVAGDKPSR
# B3: MON-HT1: engineered oxygenase protein, amino acid sequence SEQ ID NO:14 (protein)
# chain: B2 chain with L82I, G103S, V105F, A112T, S272A
# B4: MON-HT9: engineered oxygenase protein, amino acid sequence SEQ ID NO:40 (protein)
# chain: MHAALTPLTNKYRFIDVQPLTGVLGAEITGVDLREPLDDSTWNEILDAFHTYQVIYFPAQQITNEQHISFSRRFGPVDPVPLLKSIEGYPEVQMIRREANESGRILGDDWHTDSTFLDAPPAAVVMRAIEVPEYGGDTGFLSMYSAWDTLSDTMKATIEGLNVVHSATRVFGSLYQAQNWRFSNTSVKVMDVDAGDRETVHPLVVSHPVTGRRALYCNQVYCQRIEGMTDAESKCLLQFLYEHATKFDFTCRVRWKKDQVLVWDNLCTMHRAVPDYAGKFRYLTRTTVAGDRPAR
# B5: MON-HT10: engineered oxygenase protein, amino acid sequence SEQ ID NO:43 (protein)
# chain: B4 chain with T21C, A59G, Q61A, S69A, R271L, A277D, R292K, A294S
# Experiments:
# [1] = format: biochemical
# Method: To analyze these engineered proteins for activity in higher temperatures, the in vitro enzyme assay in Example 1 was modified to specify pre-heating all of the assay components to the desired temperature for 5 minutes before combining the components and then maintaining the reaction at the desired temperature for the duration of the reaction. To normalize the assay measurements, quizalofop-P was used as the substrate for the reaction and enzyme activity was normalized based on the 25° C. readings. Using these parameters, the temperature at which the enzyme activity was half of maximum (T1/2) was calculated. The T1/2 for MON-HT55 was calculated to be 29° C., and the T1/2 for wild-type RdpA was calculated to be 38° C. (FIG. 2A).
# Enzyme activity over a range of temperatures was analyzed in-depth for MON-HT1, MON-HT2, MON-HT7, and MON-HT8. These assays were conducted as described above. Quizalofop-P or 2,4-D was used as the substrate for these reactions and activity was normalized based on the activity of the wild-type enzyme at 25° C. The activity curves obtained are presented in FIG. 2B (with quizalofop-P as the substrate) and FIG. 2C (with 2,4-D as the substrate). Using quizalofop-P as the substrate, MON-HT55 was the most temperature sensitive, with a T1/2 of 29° C. […] MON-HTI was slightly less temperature sensitive, with a T1/2 about 1° C. higher than the wild-type enzyme.
# F1 hybrid maize plants = assay: trait efficacy field trial, 2,4-D pressure screening, F1 hybrid; format: in vivo; conditions: crop injury percentage; for 4X 2,4-D CIPV4 / 4X 2,4-D CIPV8: 4 lb ae/acre at VE-V2, V4, V8; for 8X 2,4-D CIPV4 / 8X 2,4-D CIPV8: 8 lb ae/acre at VE-V2, V4, V8; for 16X 2,4-D CIPV4 / 16X 2,4-D CIPV8: 16 lb ae/acre at VE-V2, V4, V8
# Method: Separate trait efficacy field trials for quizalofop-P and 2,4-D pressure screening were conducted at one location each with F1 hybrid transgenic plants produced by crossing an inbred plant containing maize event MON89034 with an R1 plant containing MON-HT1, MON-HT2, MON-HT8, MON-HT9, and MON-HT10 with and without operably linked CTP sequences. Transgenic F1 hybrid plants containing maize events NK603×MON89034 were used for comparison as a control.
# Three herbicide treatments were used in the trait efficacy field trial for 2,4-D tolerance: (1) 2,4-D amine at 4 lb ac/acre (4×) plus 0.25% v/v NIS applied to VE-V2 followed by V4 followed by V8; (2) 2,4-D amine at 8 lb ac/acre (8×) plus 0.25% v/v NIS applied to VE-V2 followed by V4followed by V8 maize; or (3) 2,4-D amine at 16 lb ac/acre (16×) plus 0.25% v/v NIS applied to VE-V2 followed by V4 followed by V8. Plots were visually rated as above.
# The injury rating for the control plants after all 2,4-D applications ranged from 80% to 96.25%. At the highest rate of 2,4-D (16×) applied through V8, the plants containing MON-HT1 or MON-HT2 operably linked to any of the three CTPs (A, B, or C) had better tolerance than plants containing MON-HT1 or MON-HT2 not operably linked to a CTP. Plants containing MON-HT1, MON-HT2, or MON-HT8 with or without an operably linked CTP had better tolerance to 2,4-D at all applications tested compared to plants containing either MON-HT9 or MON-HT10 with an operably linked ‘A’ CTP. Over the range of 2,4-D applications the relative ranking of tolerance was: plants containing MON-HT1 had better tolerance than plants containing MON-HT2 which were in turn better than plants containing MON-HT8. […] Error was calculated using LSD (0.05).
# transgenic maize plants = assay: trait efficacy field trials with homozygous inbred plants, CTP evaluation; format: in vivo; conditions: crop injury percentage
# Description: To evaluate different chloroplast targeting peptides (CTP), plant transformation vectors were constructed, each comprising a recombinant DNA molecule optimized for monocot expression and encoding MON-HTI (SEQ ID NO: 16), MON-HT2 (SEQ ID NO:20), and MON-HT8 (SEQ ID NO:39), MON-HT9 (SEQ ID NO:42), or MON-HT10 (SEQ ID NO:45). The vectors were created using the same combination of promoter, leader, intron, and 3′-UTR, but with one of three separate CTPs (A, B, or C) or without a CTP operably linked to the protein-coding sequence. The DNA constructs were used to transform immature maize (LH244) embryos using Agrobacterium tumifaciens and standard methods known in the art. Regenerated RO transgenic plantlets were grown in the green house. The R0 plants were selfed to generate R1 homozygous seed. The R0 plants were also used as the male to cross with inbred plants containing maize event MON89034 to generate segregating F1 hybrid seed for trait efficacy field trials.
# Separate trait efficacy field trials for quizalofop-P and 2,4-D were conducted at two locations each with the homozygous inbred transgenic plants (R2 or R4 generation). In these field trials, one of two herbicide treatments was used: (1) quizalofop-P (Assure II) at 0.16 lb ai/acre (2×) plus 0.25% v/v non-ionic surfactant (NIS) applied at V4 growth stage followed by the same at V8 growth stage; or (2) 2,4-D amine at 2 lb ae/acre (2×) plus 0.25% v/v non-ionic surfactant (NIS) applied to V4 followed by V8. Injury ratings (crop injury percentage at V4 (CIPV4) or V8 (CIPV8)) were taken 10 to 14 days after the V4 and V8 applications. Error was calculated using LSD (0.05).
# [2] = test system: mRNA transcribed from the transgene cassette; assay: Quantigene analysis of transgene mRNA expression in leaf samples; conditions: normalized to maize housekeeping genes, average of eight samples
# Description: Leaf samples were collected from the plants containing transgene cassettes encoding MON-HT1, MON-HT2, and MON-HT8 with and without CTP sequences to determine expression of the mRNA transcribed from the transgene cassette encoding the engineered proteins. Quantigene® analysis was done on the leaf sample extracts to determine mRNA expression of the transgene cassette. For these assays, the probe was to the common 3′-UTR sequence present in each expression cassette used to generate the transgenic plants. Relative expression was calculated by normalizing to maize housekeeping genes. A leaf sample was collected from each of eight plants for each construct configuration used to make the transgenic plants, and the reported relative mRNA expression data is an average of the eight samples with standard error.
# [3] = CTP A, 0.16 lb ai/acre at V4, V8, LSD (0.05) = 1.45
# [4] = CTP A, 0.16 lb ai/acre at V4, V8, LSD (0.05) = 2.2
# [5] = CTP A, 2 lb ae/acre at V4, V8, LSD (0.05) = 0.95
# [6] = CTP A, 2 lb ae/acre at V4, V8, LSD (0.05) = 1.6
# [7] = CTP B, 0.16 lb ai/acre at V4, V8
# [8] = CTP C, 0.16 lb ai/acre at V4, V8
# [9] = no CTP, 0.16 lb ai/acre at V4, V8
molecule,measurement,setting,value
B1,"T1/2, temperature at which the enzyme activity was half of maximum",[1],29 °C
B2,"T1/2, temperature at which the enzyme activity was half of maximum",[1],47 °C
same,temperature sensitivity compared with the wild-type enzyme,"[1]; substrate 2,4-D, lower T1/2 than wild-type",slightly more temperature sensitive
B3,"4X 2,4-D CIPV4",F1 hybrid maize plants; CTP A,5
same,"4X 2,4-D CIPV8",F1 hybrid maize plants; CTP A,5
same,"8X 2,4-D CIPV4",F1 hybrid maize plants; CTP A,5
same,"8X 2,4-D CIPV8",F1 hybrid maize plants; CTP A,10
same,"16X 2,4-D CIPV4",F1 hybrid maize plants; CTP A,7.5
same,"16X 2,4-D CIPV8",F1 hybrid maize plants; CTP A,15
same,"4X 2,4-D CIPV4",F1 hybrid maize plants; CTP B,5
same,"4X 2,4-D CIPV8",F1 hybrid maize plants; CTP B,5
same,"8X 2,4-D CIPV4",F1 hybrid maize plants; CTP B,5
same,"8X 2,4-D CIPV8",F1 hybrid maize plants; CTP B,10
same,"16X 2,4-D CIPV4",F1 hybrid maize plants; CTP B,10
same,"16X 2,4-D CIPV8",F1 hybrid maize plants; CTP B,15
same,"4X 2,4-D CIPV4",F1 hybrid maize plants; CTP C,5
same,"4X 2,4-D CIPV8",F1 hybrid maize plants; CTP C,5
same,"8X 2,4-D CIPV4",F1 hybrid maize plants; CTP C,5
same,"8X 2,4-D CIPV8",F1 hybrid maize plants; CTP C,10
same,"16X 2,4-D CIPV4",F1 hybrid maize plants; CTP C,10
same,"16X 2,4-D CIPV8",F1 hybrid maize plants; CTP C,17.5
same,"4X 2,4-D CIPV4",F1 hybrid maize plants; no CTP,5
same,"4X 2,4-D CIPV8",F1 hybrid maize plants; no CTP,5
same,"8X 2,4-D CIPV4",F1 hybrid maize plants; no CTP,7.5
same,"8X 2,4-D CIPV8",F1 hybrid maize plants; no CTP,10
same,"16X 2,4-D CIPV4",F1 hybrid maize plants; no CTP,10
same,"16X 2,4-D CIPV8",F1 hybrid maize plants; no CTP,22.5
same,2X Quizalofop-P CIPV4,transgenic maize plants; [3],0
same,2X Quizalofop-P CIPV8,transgenic maize plants; [4],2.125
same,"2X 2,4-D CIPV4",transgenic maize plants; [5],0
same,"2X 2,4-D CIPV8",transgenic maize plants; [6],2.5
same,2X Quizalofop-P CIPV4,transgenic maize plants; [7],0
same,2X Quizalofop-P CIPV8,transgenic maize plants; [7],1.75
same,"2X 2,4-D CIPV4","transgenic maize plants; CTP B, 2 lb ae/acre at V4, V8",0
same,"2X 2,4-D CIPV8","transgenic maize plants; CTP B, 2 lb ae/acre at V4, V8",1.25
same,2X Quizalofop-P CIPV4,transgenic maize plants; [8],0
same,2X Quizalofop-P CIPV8,transgenic maize plants; [8],1.75
same,"2X 2,4-D CIPV4","transgenic maize plants; CTP C, 2 lb ae/acre at V4, V8",1.25
same,"2X 2,4-D CIPV8","transgenic maize plants; CTP C, 2 lb ae/acre at V4, V8",1.25
same,2X Quizalofop-P CIPV4,transgenic maize plants; [9],0
same,2X Quizalofop-P CIPV8,transgenic maize plants; [9],1.25
same,"2X 2,4-D CIPV4","transgenic maize plants; no CTP, 2 lb ae/acre at V4, V8",0
same,"2X 2,4-D CIPV8","transgenic maize plants; no CTP, 2 lb ae/acre at V4, V8",1.25
same,"T1/2, temperature at which the enzyme activity was half of maximum",[1],42 °C
same,T1/2 higher than the wild-type enzyme,[1],about 1 °C
same,Relative Expression,[2]; CTP A,7.80
same,Relative Expression,[2]; CTP B,5.95
same,Relative Expression,[2]; CTP C,3.82
same,Relative Expression,[2]; no CTP,4.31
B4,"4X 2,4-D CIPV4",F1 hybrid maize plants; CTP A,17.5
same,"4X 2,4-D CIPV8",F1 hybrid maize plants; CTP A,55
same,"8X 2,4-D CIPV4",F1 hybrid maize plants; CTP A,25
same,"8X 2,4-D CIPV8",F1 hybrid maize plants; CTP A,75
same,"16X 2,4-D CIPV4",F1 hybrid maize plants; CTP A,45
same,"16X 2,4-D CIPV8",F1 hybrid maize plants; CTP A,90
same,2X Quizalofop-P CIPV4,transgenic maize plants; [3],0
same,2X Quizalofop-P CIPV8,transgenic maize plants; [4],0
same,"2X 2,4-D CIPV4",transgenic maize plants; [5],3.75
same,"2X 2,4-D CIPV8",transgenic maize plants; [6],1.25
B5,"4X 2,4-D CIPV4",F1 hybrid maize plants; CTP A,32.5
same,"4X 2,4-D CIPV8",F1 hybrid maize plants; CTP A,70
same,"8X 2,4-D CIPV4",F1 hybrid maize plants; CTP A,55
same,"8X 2,4-D CIPV8",F1 hybrid maize plants; CTP A,87.5
same,"16X 2,4-D CIPV4",F1 hybrid maize plants; CTP A,45
same,"16X 2,4-D CIPV8",F1 hybrid maize plants; CTP A,90
same,2X Quizalofop-P CIPV4,transgenic maize plants; [3],0
same,2X Quizalofop-P CIPV8,transgenic maize plants; [4],0
same,"2X 2,4-D CIPV4",transgenic maize plants; [5],0
same,"2X 2,4-D CIPV8",transgenic maize plants; [6],1.25
